This is an account of results in US20250074994A1 (Molecular Partners, published 2025).

The experiment deals with T1, biotinylated recombinant human CD70 (extracellular domain, Fc tag) (human, UniProt P32970 52-193, chemically biotinylated using 5-fold excess of Biotin).
T1 construct: Bought from ACROBiosystems; also called bio.hCD70; Bio.CD70; not shown: C-terminal Fc Tag of the bought protein (ACROBiosystems)
T1 sequence: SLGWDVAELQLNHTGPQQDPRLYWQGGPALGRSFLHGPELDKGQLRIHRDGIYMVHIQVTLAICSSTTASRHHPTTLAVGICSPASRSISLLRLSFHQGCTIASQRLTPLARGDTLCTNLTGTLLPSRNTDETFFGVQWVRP
The experiment can be described thus: crude cell extract HTRF with 2 nM biotinylated hCD70. An excerpt:
Selected clones bind specially to human CD70 as shown by crude extract HTRF Individual selected ankyrin repeat proteins specifically binding to hCD70 in solution were identified by a Homogeneous Time Resolved Fluorescence (HTRF) assay using crude extracts of ankyrin repeat protein-expressing Escherichia coli cells using standard protocols. Ankyrin repeat protein clones selected by ribosome display were cloned into derivatives of the pQE30 (Qiagen) expression vector (pMPDV25), transformed into E. coli XL1-Blue (Stratagene), plated on LB-agar (containing 1% glucose and 50 μg/ml ampicillin) and then incubated overnight at 37° C. […]
The extract of each lysed clone was applied as a 1:2000 dilution (final concentration) in PBSTB (PBS supplemented with 0.1% Tween 20® and 0.2% (w/v) BSA, pH 7.4) together with 2 nM (final concentration) biotinylated hCD70, 1:400 (final concentration) of anti-strep-Tb HTRF antibody—FRET donor conjugate (Cisbio) and 1:400 (final concentration) of anti-6His-D2 antibody FRET acceptor conjugate (Cisbio) to a well of 384 well plate and incubated for 60 minutes at RT. The HTRF was read-out on a Tecan M1000 using a 340 nm excitation wavelength and a 665±10 nm emission filter.

B1: DARPin® protein #4 (designed binder)
chain: MRGSHHHHHHGSDLGFKLLQAALRGQDDEVRILLAAGADVNAKDQLGTTPLHLAAHYGHLEIVEVLLKAGADVNAKDVWGDTPLHLAAQHGHLEIVEVLLKAGADVNAQDRAGYTPADLAAQEGHEDIAEVLQKAA
For the molecule B1, the binding result is given as “binds”.
